Experimental data reported in patent US20210253725A1 (BIONTECH, published 2021).
Residue numbers refer to the chain shown, from its start. Names and notes keep the numbering of the source. Blank lines part the entries; values can stand above or below the binder they belong to.

Experiments:
[1] = molecular target: T1, CD134 protein (His-tagged, Sino Biological Inc. 10481-H08H) (human, UniProt P43489 29-216); test: ELISA, coated His-tagged CD134
T1 construct: bought protein coated on ELISA plates; also called OX40; TNFRSF4; not shown: His tag
T1 sequence (looked up): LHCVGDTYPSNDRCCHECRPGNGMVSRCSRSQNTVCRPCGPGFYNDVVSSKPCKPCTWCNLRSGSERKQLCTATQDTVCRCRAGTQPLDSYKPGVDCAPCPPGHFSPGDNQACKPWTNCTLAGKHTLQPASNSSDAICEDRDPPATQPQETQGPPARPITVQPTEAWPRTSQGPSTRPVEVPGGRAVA

[2] = molecular target: T2, CD134 expressed on the cell surface of HT1080_OX40 cells (human, UniProt P43489 29-277); test: cell-based or functional assay
T2 sequence (looked up): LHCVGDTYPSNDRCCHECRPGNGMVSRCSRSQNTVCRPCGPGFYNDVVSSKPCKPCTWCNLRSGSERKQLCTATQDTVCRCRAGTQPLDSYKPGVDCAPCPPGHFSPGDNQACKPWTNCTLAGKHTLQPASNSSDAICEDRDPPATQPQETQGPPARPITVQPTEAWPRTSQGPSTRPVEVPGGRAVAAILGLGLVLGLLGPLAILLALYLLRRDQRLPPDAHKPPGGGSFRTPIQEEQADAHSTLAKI

[3] = molecular target: T2, CD134 expressed on the cell surface of …; test: HT1080_OX40 cells, imaging
Note: test concentration or dose not given here.

B2: P018.S.11.A.F02 (antibody, V domains shown)
VH: QSVEESGGRLVTPGTPLTLTCTASGFSLSNYNMGWVRQAPGEGLEWIGHISTDGSAYYASWAKGRFTISKTSTTVDLKITSPTTEDTGTYFCARLYYRHGYALNLWGQGTLVTVSS
VL: DIVMTQTPASVSEPVGGTVTIKCQASQSVGSYLAWYQQKSGQPPKLLIYSASTLASGVPSRFKGSGSGTEFTLTISDLVSADAATYYCHCTYGSNITANWGTFGGGTGVVVK
notes: V regions on human Ig constant parts; also called AB134_38
ELISA [abs. corr.] [1]: 2.43 abs. corr. | Functional assay Cross-linked by F(ab′)2 fragment IL-8 [2]: 1.38 abs. corr. | Functional assay IL-8 [2]: -0.011 abs. corr. | Cellular binding assay [RFU] [3]: 503 RFU

B5: P018.S.11.A.E06 (antibody, V domains shown)
VH: QSVEESGGRLVTPGTPLTLTCTASGFSLSSYYMSWVRQAPGKGLEWIGIIDTGSGDTWYATWAKGRFTISKTSTTVDLKMTSLTTEDTATYFCARVNPEFAHVWPYYFDLWGQGTLVTVSS
VL: ALVMTQTPASVEVAVGGTVTIKCQASQSISSNFLSWYQQNPGQPPKLLIDRASTLESGVPSRFKGSGSGTEFTLTISDLESADAATYYCQQGDSLSNVENAFGGGTELVVK
notes: V regions on human Ig constant parts; also called AB134_37
ELISA [abs. corr.] [1]: 2.05 abs. corr. | Functional assay Cross-linked by F(ab′)2 fragment IL-8 [2]: 1.72 abs. corr. | Functional assay IL-8 [2]: 0.278 abs. corr. | Cellular binding assay [RFU] [3]: 554 RFU

B6: P018.S.04.A.E01 (antibody, V domains shown)
VH: QSVEESGGRLVTPGTPLTLTCTASGFSLSSSWMSWVRQAPGKGLEFIGFINTGGRAFYATWASGRFTISRTSTKVDLEITSPTSEDTATYFCVRGAAGYPEYDDGDLWGQGTLVTVSS
VL: AQVLTQTLSPVSAAVGGTVTINCQSSPSVYHNNWLSWFQKKPGQPPKLLIYEASKLASGVPPRFSGSGSGTQFTLTISGVQSDDAATYYCAGSFSDNIYTFGGGTAMVVK
notes: V regions on human Ig constant parts; also called AB134_10
ELISA [abs. corr.] [1]: 2.88 abs. corr. | Functional assay Cross-linked by F(ab′)2 fragment IL-8 [2]: 1.41 abs. corr. | Functional assay IL-8 [2]: 0.084 abs. corr. | Cellular binding assay [RFU] [3]: 22 RFU

B7: P018.S.11.A.H04 (antibody, V domains shown)
VH: QEQLEESGGDLVKPGASLTLTCTASGLSFSGSYWICWVRQAPGKGLEWIGCITAGISGSTYYASWAKGRFTISKTSSTTVTLQMTSLTAADTATYFCARERTGGWGDFNLWGPGTLVTVSS
VL: DVVMTQTPASVEAAVGGTVTIKCQASQSITTYLSWYQQKPGQPPKLLIYLASTLESGVPSRFKGSRSGTEYTLTISDLESADAATYYCQCTDGGINHWFWAFGGGTEVVVK
notes: V regions on human Ig constant parts; also called AB134_47
ELISA [abs. corr.] [1]: 2.65 abs. corr. | Functional assay Cross-linked by F(ab′)2 fragment IL-8 [2]: 1.61 abs. corr. | Functional assay IL-8 [2]: 0.61 abs. corr. | Cellular binding assay [RFU] [3]: 382 RFU

B8: P018.S.11.A.E05 (antibody, V domains shown)
VH: QSLEESGGRLVTPGTPLTLNCTASGFSLSAYWMGWVRQAPGKGLEWIGIIYATGSTYYTTWAKGRFTISRTSTTVDLKMTSPTTEDTATYFCGRGDGYESLNLWGPGTLVTVSS
VL: AQVLTQTPSSVSAAVGGTVTINCQSSQSVYSNNLLSWYQQKPGQPPKRLIYGASTLDSGVSSRFKGSGSGTQFTLTISGMQSDDAATYYCLGYYSGGIYVFGGGTEVVVK
notes: V regions on human Ig constant parts; also called AB134_36
ELISA [abs. corr.] [1]: 1.66 abs. corr. | Functional assay Cross-linked by F(ab′)2 fragment IL-8 [2]: 1.42 abs. corr. | Functional assay IL-8 [2]: -0.265 abs. corr. | Cellular binding assay [RFU] [3]: 407 RFU

B9: P018.S.11.A.B04 (antibody, V domains shown)
VH: QEQLEESGGDLVKPEGSLTLTCTASGFSFSSAYYMCWVRQAPGKGLEWIACIDAGSSGSTYYASWAKGRFTISKTSSTTVTLQMTSLTAADTATYFCARDGGSTTGYGWLDLWGQGTLVTVSS
VL: AVVMTQTASPVSAAVGGTVTINCQASQSIGTNYLSWYQQKPGQPPKLLIYEASNLETGVPSRFKGSGSGTEYSLTISDLESADAATYYCLYSYYSSSSAYTFGGGTEVVVK
notes: V regions on human Ig constant parts; also called AB134_25
ELISA [abs. corr.] [1]: 1.43 abs. corr. | Functional assay Cross-linked by F(ab′)2 fragment IL-8 [2]: 1.66 abs. corr. | Functional assay IL-8 [2]: -0.087 abs. corr. | Cellular binding assay [RFU] [3]: 444 RFU

B10: P018.S.12.A.A02 (antibody, V domains shown)
VH: QSLEESGGRLVTPGTPLTLTCTASGFSLSTYYMTWVRQAPGKGLEWIGDIYVRGGARYANWAKGRFTISRTSTTVDLRITSPTTEDTATYFCAREGLSLWGQGTLVTVSS
VL: AQVLTQTASPVSAAVGGTVTINCQSSQSVYKNNRLAWYQQKPGQPPKLLIYETSKLESGVSSRFKGSGSGTQFTLTISGVQSDDAATYYCLGGYDCGSADCNAFGGGTEVVVK
notes: V regions on human Ig constant parts; also called AB134_51
ELISA [abs. corr.] [1]: 1.58 abs. corr. | Functional assay Cross-linked by F(ab′)2 fragment IL-8 [2]: 1.57 abs. corr. | Functional assay IL-8 [2]: 0.145 abs. corr. | Cellular binding assay [RFU] [3]: 502 RFU

B11: P018.S.12.A.C05 (antibody, V domains shown)
VH: QSLEESGGRLVTPGTPLTLTCTASGFSLSNYYMNWVRQAPGKGLEWIGIIDKSGSAYYASWARGRFTISKTSTTVGLKIPSPTTEDTATYFCARGYGGYADHGLGLWGQGTLVTVSS
VL: DVVMTQTPASVSEPVGGTVTIKCQASQSIAGWLAWYQQKPGQPPKLLIYQASKLASGVPSRFSGSGSGTEYTLTISDLESDDAATYYCQCTYGSGSGSNGFGGGTEVVVK
notes: V regions on human Ig constant parts; also called AB134_65
ELISA [abs. corr.] [1]: 2.94 abs. corr. | Functional assay Cross-linked by F(ab′)2 fragment IL-8 [2]: 1.65 abs. corr. | Functional assay IL-8 [2]: 0.228 abs. corr. | Cellular binding assay [RFU] [3]: 494 RFU

Continued, values first:

ELISA [abs. corr.] [1]: 2.48 abs. corr. | Functional assay Cross-linked by F(ab′)2 fragment IL-8 [2]: 1.27 abs. corr. | Functional assay IL-8 [2]: -0.074 abs. corr. | Cellular binding assay [RFU] [3]: 496 RFU
B1: P018.S.12.A.H03 (antibody, V domains shown)
VH: QSLEESRGGLVQPEGSLTLTCKASGFSFSSGYYMCWVRQAPGKGLEWIGCIYSGSDSACYASWAKGRFTISKTSSTTVTLQMTSLTVADTATYFCVRDLGDYNALSYTINLWGPGTLVTVSS
VL: DVVMTQTPSSVSAAVGGTVTIKCQASQSISTNLAWYQEKAGQPPKLLIYRASTVASGVPSRFKGSGSGTQFTLTISDLESADATTYFCQCIDYDDYGGTFGGGTEVVVK
notes: V regions on human Ig constant parts; also called AB134_89

ELISA [abs. corr.] [1]: 2.59 abs. corr. | Functional assay Cross-linked by F(ab′)2 fragment IL-8 [2]: 1.63 abs. corr. | Functional assay IL-8 [2]: 0.355 abs. corr. | Cellular binding assay [RFU] [3]: 497 RFU
B3: P018.S.12.A.E02 (antibody, V domains shown)
VH: QSVEESGGRLVTPGTPLTLTCTASGFTLSSYYMGWVRQAPGKGLEWIGIIYPSGSAYYATWTKGRFTISRTSTTVDLKVTGPTTEDTATYFCARSTTSSLYYGYNLWGQGTLVTVSS
VL: DIVMTQTPASVEAAVGGTVTIKCQASASITNWLAWYQQKPGQPPKLLIYKASTLESGVPSRFKGSGSGTEFTLTISDLESADAASYYCQSNYGGGSDTSHTFGGGTGVVVK
notes: V regions on human Ig constant parts; also called AB134_73

ELISA [abs. corr.] [1]: 0.002 abs. corr. | Functional assay Cross-linked by F(ab′)2 fragment IL-8 [2]: 1.58 abs. corr. | Functional assay IL-8 [2]: -0.114 abs. corr. | Cellular binding assay [RFU] [3]: 0 RFU
B4: P018.S.13.A.G06 (antibody, V domains shown)
VH: QSLEESGGGLVKPGASLTLTCKASGFDLSSYYYMCWVRQAPGKGLEWIGCFYTDDSANTWYATWAKGRFTISKTSSTTVTLQMTSLTAADTATYFCARDASGWYWFNLWGPGTLVTVSS
VL: AQVLTQTPSPVSAAVGGTVTISCQSSQSLHDDNALAWYQQKPGQPPKLLIYLASYLASGVPSRFKGSGSGTQFTLTISEVQSDDAATYYCQGAYSGDNNSFGGGTEVVVK
notes: V regions on human Ig constant parts; also called AB134_92

ELISA [abs. corr.] [1]: 2.86 abs. corr. | Functional assay Cross-linked by F(ab′)2 fragment IL-8 [2]: 1.53 abs. corr. | Functional assay IL-8 [2]: 0.267 abs. corr. | Cellular binding assay [RFU] [3]: 503 RFU
B12: P018.S.12.A.A05 (antibody, V domains shown)
VH: B11 VH with M33I
VL: B11 VL with G95A
notes: V regions on human Ig constant parts; also called AB134_54

ELISA [abs. corr.] [1]: 1.99 abs. corr. | Functional assay Cross-linked by F(ab′)2 fragment IL-8 [2]: 1.4 abs. corr. | Functional assay IL-8 [2]: -0.007 abs. corr. | Cellular binding assay [RFU] [3]: 514 RFU
B13: P018.S.12.A.A04 (antibody, V domains shown)
VH: QSVEESGGRLVTPGTPLTLTCTVSGIDLSSYAMSWVRQAPGKGLEYIGIISGSGNTYYASWAKGRFTISKTSTTVDLKISSPTTEDTATYFCCRGDPSYSIDGFDPWGPGTLVTVSS
VL: AAVLTQTPSPVSAAVGGTVTINCQSSQSVYNNNDLAWYQQKPGQPPKLLIYRASNLASGVPSRFSGSGSGTQFTLTISGVQSGDAATYYCLGAWDDDADTWAFGGGTEVVVE
notes: V regions on human Ig constant parts; also called AB134_53
